System: Saccharomyces cerevisiae
Test: transcriptional activation domain activity (GFP:mCherry ratio, weighted mean of sorted bins, harmonized to initial dataset scale) (arbitrary fluorescence ratio units); higher = stronger transcriptional activation
Conditions: beta-estradiol 1 µM; induction time 4 h
Outline: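 Protein tiles carrying barcodes and fused to an estradiol-inducible synthetic transcription factor were placed at the URA3 locus of yeast diploids with a GFP reporter. Following 4 hours at 30 °C in SC with 1 uM beta-estradiol, cells were sorted into 8 GFP:mCherry bins, barcodes were sequenced, and tiles with fewer than 50 reads were discarded. Activation activity is given as the read-weighted mean of bin median fluorescence, averaged across barcodes and linearly mapped to the initial dataset scale.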

Sequence	transcriptional activation domain activity
WLSHSQKKHCELCKTPFRFTKLYAPNMPKALPTHIFLSHMAKYILRNLLVWLR	61200
WLSHSQKKHCELCKTPFRFTKLYAPNMPKALPTHVFLSHVAKYILRNLLVWLR	81200
WLVKVYRLGPFSRDKRYGFAKLLGLKLNYDVKQVKQKPSFQLSMALALLNKCT	64500
WMIWFRVGFACIFSSCVFLRVYGLYRIFIQRKPFTRYSFYVPFTIFTVCVFIF	69400
WPFDESIERNFSTTATAATGESKFDINDNCNRINSKSYSKTNSMNGNGMNNSN	28400
WPWTFWPWTFWIFWTFWTFGLFGLFGLFGLGLFGLFGLFGPLDFLDFLDLWTF	42000
WQTALVHKHAQRVIHSTLEVVDQLVPKHYDHQLLRRCWGALNLIMTYVSFMCV	41400
WRGRLVQRRSNDHEIDFVPYKTIYGGFWSHVNPSRLAVPRYLNIFRIIVWLFF	54400
WRHLFLGQLPLLMSEPFTNSTPIIDPLLNNDFELIDFEVNLMKYLQSKDQQLS	117000
WRILLIVHLFGPFSLVDELLLPFKSSTSIFLFGILYIYCLFVLFLAYMILSIL	32600
WRKQWLVPLLIRYFNQMVLTLIRWFPLRCLYYTLIKGQAYEGLNKEYDADGIH	58300
WRLYMAFRTLKGKLLPCLIEANGLDLFISTFAAIVERVAEVSNLRLTSKLYQA	44900
WRVLSVFAVFNLGPYVFSLILYSSNAFLYTQWLSFTAVCLISLANVILFRFLL	43700
WRYGKCQVCGYVMINYPGPNQRHHCLEGRVRTVYNTVTFPCYLEVHVVQMIWL	60800
WSFLSFSFLPFPLSSFLLLSYPPPSFFLLPPSPFFFAVLLHLFTLLLFSLLLL	63900
WSHPLRMTYFLVLVFFSCTWVGGVLRRGWGYLVLNAFCRHSYICGVCCIHYLS	18800
WSILYLLCEVYARLLLTLSDDEFLSHAGNPLSLKQVIELTRQLKNLSFVLFWR	70700

Sequence	transcriptional activation domain activity
WSSYTGPILSPGFSDLDWAPDPSNTTSGNLFIDLWPTWLSWMPDSTVLFTPWG	49900
WSVFFFFFFFFCLNLSVLWLWFFRLFFFFFFLCAFDVLCLPLSCPPLFRPKAT	48200
WSVLLCFAVSFFSFSFLSFWAVTALCYGFVFVFFILLCVLCCFSFAFSHVYLF	49600
WSVMSCLYLVVRYFGIFLALLCGFWGGLLYIPESVSYGLIVLIEWGFSVYFWF	41400
WSVVFPLQEEEKKKNEEEGLAFPSLDNIKGILRPDSCMRLGSSANIVVLTFPD	53600
WTCVRRPGGLGGFFFGTWTGWQIWVGLLVFWVGGCTFGLLLMNRFLLLTGVYK	42000
WTGWEGGRYLPFFFFPFFFFFATCCFSLFMILFFVFFFPGRISISFRLLLFFL	43000
WVLNVHLCLFYLAAFGDSAFNVISAIRKLSELPFSYSLYLFAWLFISWDLLFV	70500
WVMYVIFITVGWYAMVTGQSIVLYSRLHLVVNSIKVLRFVLILICVDVVILHV	67500
WWGDTYFLFFPCLMYKFHVGFCLYMKWEMLYLLLFGRACDVFIMIGVVAVHVL	62400
WWLLGDSYESEIISLVILFQFWNNGALVNFGSAFRQAWWRNYLLVFVWSCFFI	17800
WWLRINLNICISYWIVATGVVVVYDWVLTLYGACQILLVMQMFVLGPCLILSV	46900
WWLVKVTVSVLWVLDTFDMCLIFHILYWYLIINYGNPLSLANPIWSIILHVLV	64800
WWMYLPLLLLLVLMFAPHYSILVLLVSYYLNIHDSPFLFSLHLFVIYLITFLA	58200
WYAPDAGGSVYDYITLTAGLDALNCAQKVRISPLLIVLLRNFAVRCLLSKGSL	52300
WYGFLVTWGLLVLFIICFYFFISVSCCAFCVLFSSTWSFGRLFLLTFPLILLL	41700
WYHHVPLCILVLLLLAPHPSILYVLLNYHYLTLHATHYFIVHLLTIYAFSFLA	45900
